Assay results: patent US20200048693

Tested on: dsDNase (shrimp double strand-specific DNase)
Experiment: cleavage_in_vitro
Details: DNA strand of hybrid cleaved, RNA strand almost not; First-Strand buffer, 37 C

Sequence: CGCCATCGGAGGTTC / GAACCUCCGAUGGCG [RNA-DNA hybrid dual probe]
- relative cleavage activity (fraction of dsDNA activity): 0.5
